Experimental data: the DeepSol protein solubility set

assay: soluble on expression in E. coli; label from the status in PepcDB or PDB records

Row | Sequence | soluble on expression in E. coli
1 | MSLNNTKQPVVILVGPTAVGKTNLSIQLAKSLNAEIISGDSMQIYKGMDIGTAKITEQEMEGVPHHLIDILDPQDSFSTADYQSLVRNKISEIANRGKLPMIDGGTGLYIQSELYDYTFTEEANDPVFRESMQMAAEREGADFLHAKLAAADPEAAAAIHPNNTRRVIRALEILHTSGKTMSQHLKEQKRELLYNAVLIGLTMDRDTLYERINQRVDLMMQSGLLPEVKRLYDKNVRDCQSIQAIGYKELYAYFDGFVTLSDAVEQLKQNSRRYAKRQLTWFRNKMQVTWFDMTPPVDMELKKKEIFTHIAGKLELEGHHHHHH | soluble
2 | MAHHHHHHMAKEYPILVVPCKRGGIPCLTPDQARAILNEEERVISVSIFDASEFVDPCKKANQGFAEFCGLGEFRTILTVRSPHIGMHASAPATDAGLCANHEKGRISLGMDKWKEMVLPLRPEIAIPPYDSVSINEPQKKRRRTAMTRSAKWATSADSLQGNGNCKLMKPLCAAENNGEFVFLEELCQNETLQQYTYHVKEAINKGQVMSTAISLPSLLICLKYNVCFIESAIPWILAEKGIGLVFDFNPVSGVSPARYETQIDLNDDCFTKDIRPLSPDCNCYTCKRHMRAYIHHLLTVQEMNSKTLLVIHNLTRLIQLVRLYRILDAEDREALLNWLFAQF | not soluble
3 | MSLYQAIVFFDLDSTLFDDNKHVLPASVAAIHEMQQHHILPVIATGRNIFEIQYVLDGTGIDSVVGANGSYVQYQGQRLAAAVIAPELLTAVTSFAQRQHDPIAYYTSQGFRLSQANADTTENFQLLRLHPIVDPAWYATHQINFLNVFNRDHDQLYQEKFSGQLTFVRNNPRCLDTMVNGVTKQSGIRTLIQQAGLQGIKTYAFGDGYNDLQMFDEVDVPISMGNGVAAAKEKAAYVTTTNTTDGIVRGLRHFGLIQEGHHHHHH | soluble
4 | MSLKTTEYVAEILNELHNSAAYISNEEADQLADHILSSHQIFTAGAGRSGLMAKSFAMRLMHMGFNAHIVGEILTPPLAEGDLVIIGSGSGETKSLIHTAAKAKSLHGIVAALTINPESSIGKQADLIIRMPGSPKDQSNGSYKTIQPMGSLFEQTLLLFYDAVILKLMEKKGLDSETMFTHHANLEEGGSHHHHHH | soluble
5 | MLDKTRLRIAMQKSGRLSDESQELLSRCGIKINLQQQRLIAFAENMPIDILRVRDDDIPGLVMDGVVDLGIIGENVLEEELLNRRAQGDDPRYFTLRRLDFGGCRLSLAAPLDAEYTGPQCLQDTRIATSYPHILKQYLDKQGVRFKSCLLNGSVEVAPRAGLADAICDLVSTGATLEANGLREVEVIYRSKACLIQRDGEMSVDKQQLIDRLMTRIQGVIQARESKYIMMHAPSERLDEIITLLPGAERPTILPLAGDKSRVAMHMVSSETLFWETMEKLKALGASSILVLPIEKMME | not soluble
6 | MGHHHHHHHHHHSSGHIDDDDKHMGSMAELKYISGFGNECSSEDPRCPGSLPEGQNNPQVCPYNLYAEQLSGSAFTCPRSTNKRSWLYRILPSVSHKPFESIDEGHVTHNWDEVDPDPNQLRWKPFEIPKASQKKVDFVSGLHTLCGAGDIKSNNGLAIHIFLCNTSMENRCFYNSDGDFLIVPQKGNLLIYTEFGKMLVQPNEICVIQRGMRFSIDVFEETRGYILEVYGVHFELPDLGPIGANGLANPRDFLIPIAWYEDRQVPGGYTVINKYQGKLFAAKQDVSPFNVVAWHGNYTPYKYNLKNFMVINSVAFDHADPSIFTVLTAKSVRPGVAIADFVIFPPRWGVADKTFRPPYYHRNCMSEFMGLIRGHYEAKQGGFLPGGGSLHSTMTPHGPDADCFEKASKVKLAPERIADGTMAFMFESSLSLAVTKWGLKASRCLDENYHKCWEPLKSHFTPNSRNPAEPN | soluble
7 | AFSFAAEHGLELDKVDIDLTDKAAMQDGARTFANYCMGCHSAKFQRYERVADDLGIPHELMLEKLVFTGAKIGDHMQIGMKPSDAKTWFGAAPPDLTLVARVRGTDWLYTYLRSFYEDPSRPYGVNNKVFPNVGMPNVLVGLQGNQVVGCKQVQTVVDGKKQFDPLTGSPLTHEACDQLTITPNSGTLTAEQFDEKVKNLVTFLAYSANP | not soluble
8 | MSLSNYISIKGAKVNNLKNIDVNIPRNKLVVITGLSGSGKSSLAFDTLYAEGQRRYVESLSSYARQFLGRMSKPECDFIKGIPPAIAIEQKVNSRNPRSTVGTSTEIYEYLRLLYARVGKTYSPISGQLVKKHSIEDIVNCMLSFPKGTKYTVLTPMMPREGRTLLQQLEMDLKQGFTRIEVNREIVRIEDFLQQTAAEDKKQNIYLLVDRMTADDSKDSISRLTDSAETAMYEGDGNCLLRFYSADGSTQLFSFSTKFETDGIKFEEPNDQMFSFNSPLGACPECEGFGKVIGIDEHLVIPNRALSVYDGAVLCWRGEKMGEWLQEFIHEAPAHDFPIFAPYYELTQEQKDYLWHGPRNKACIDSFFKMLEENQYKIQYRVMLARYRGKTICPVCHGTRLKKEAGYVKVGGKSISQLVDLPIHDLKEFFRTLELDAHDTAIAKRILTEITNRINFLMDVGLGYLTLNRLSNSLSGGESQRINLATSLGSSLVGSLYILDEPSIGLHSRDTDRLIKVLRQLQELGNTVVVVEHDEEIIRAADYIIDIGPQAGRLGGQIVYQGNMNDLQRNEGHHHHHH | soluble
9 | MKKRYQTLNEHYRQLFGAKMFKVPIDAGFDCPNRDGTVAHGGCTFCTVSGSGDAIVAPDAPIKEQFYKEIDFMHRKWPDVNRYLVYFQNFTNTHDTVDVIRDRYEQAINEPGVVGINIGTRPDCLPDDTIAYLAELSERMHVTVELGLQTTYEETSRLINRAHSYDLYKETVRRLRHYPNINIVSHLINGLPKETHDMMLENVRRCVTDNDIQGIKLHLLHLMTNTRMQRDYHEGRLKLLSQKDYVSIICDQLEIIPKHIVIHRITGDAPRDMLIGPMWSLNKWEVLNAIDKEMERRGSFQGCKVD | not soluble
10 | MGSDKIHHHHHHMSLSRNSDLHMHSTASDGGYSPTELMEKCHQANLKFVALTDHDTVNGIEEAKQTAHRLGFILIPGIELSTKASGQSVHMLGYGIDWKNDTLKRRLDRQQDIRKQRLEQILLKLKAAGVPLEQDAVLRYADGGAIGRPHVAKALMDKGYVRSVQEAFEHYLAEGRPCYVKRQEYISVEQAIAWIHQAGGVAIVAHPGYYDLDDQLIGWVREYGLDGIEVYHRDHSREVVAHYEQLCKRMEAETGRRLLRTGGSDFHHESYGRTAAPLGTTRIPDQLTYELLHDLERKKTRA | not soluble
11 | MGSDKIHHHHHHMRKFKIPNMGALVAFEAAARHESFTHTAKELFLTESAVSRQIATLEASLGVRLFARVKQRVVLTRAGKLYGTQVRRALEALDRDTLSIIAHGSGGGYLELAVLPTFASHWLIPRIKSFYDRTPDVRVNMGSRTDLFSFEDTHFEAAIHYGKPTWPGTSSDYLFGEEVVPICSPALLDGPVERVEDLLAYPLLHSTTRPGAWAQWFETHGVEDIRTMQGVRYELHTMLISAAAAGLGIALVPKFFVEEQLQQLGLVVPCDAATVGDSAYYLVYPTELSHSKPLESFRAWLLEQASAYAAPGRDGEEDDLDAEDDEDVE | not soluble
12 | GMKQSKKIIITCAVTGSIHTPTMSPYLPITPEEIVKEGVAAAEAGAAMLHLHARDPLNGRPSQDPDLFMRFLPQLKERTDAILNITTGGGLGMSLDERLAPARAARPEVASMNMGSLNFNISQAAAKFDTFKFDWERPYLAGTRDFILSNTFSQIERGMTELGASGTRFEFECYDVGHLYNLAHFVDRKLVEPPFFLQCVFGILGGIGADPENLLHMRTIADRLFGQDYYLSVLAAGRHQMPFVTMSAILGGNVRVGLEDSLYSGKGQLATSNAEQVRKIRRIIEELSLDIATPDEARAMLKTKGANETSF | soluble
13 | MGSDKIHHHHHHMAAVALDQYLASVLKSSASDKNEIKLEAGNPDFDLFTIYLENHNTGIHRYRMDVSTILYVAKGTVTIKSAEKVINMRTGNVLLLTEGCKYEVSGQNDDTVLAKLKFAPGFEYRKYFNDFSYKGNRENKIIEQISDSLENEHVLWLKNNQITSASQVMQHIIGGYLDDELFAKALIQAELTAMLIISIRTQRMATPTNLDKTKFEKKSLDNYIDNHFADISLADAAKYFGFNPNYFSNMVKAKTGKSFVDHVGERRMQEARELLAQPDISLKEIISRVGYSSKSFFYKKFNQYYNMTPAAMRKELFRQANINLR | not soluble
14 | PVFILGHWRSGTTFVHNVFSCDSHFGYNTTYQTVFPHLMMWGQPFFKKNMSWLMPDKRPTDNMELAVDLPQEEEFALANMMPYTYYNFWFLPRYQQEYADKYLLFDTISEAELKVFEETFTKLIKISLWNTQGTQFLSKNPPHTGRVKELVKMFPNAKFIYLMRNPYTVFESTRSFFTNTIQPLKLQDITPAELENNILSIYAKLYHKYEADKQFIPEGNLMEVKFEDFEADAMGMTENIYHALDIPGFAEARGSIEKYVGGKKGYKKNKYKYDDRTVQLVQDHWDFALKQWDYSL | not soluble
15 | AYQLYRNTTLGNSLQESLDELIQSQQITPQLALQVLLQFDKAINAALAQRVRNRVNFRGSLNTYRFCDNVWTFVLNDVEFREVTELIKVDKVKIVACDGKNTGSNTTE | soluble
16 | MYEQQQHFMDLQSDSGFGDDSSWLAGDDDLRLSPHQSAAGTNSGNENLDRRLLKDLVEMVPLIEHYMEHKERSSFKRRGSMIYTKMPSKESLSRRGRNASQTVPGRKKRDQEGNDDVMNNSREDDENAKALAGAEKEEMSRLREQVNDLQTKLSEKEEVLKSMEMSKNQVNEIQEKLEATNRLVAEKDMLIKSMQLQLSDTKIKLADKQAALEKTQWEAKTTGTRAIKLQEQLDAVEGDISTFTRVFETLAKTDSKKPDRDYDAVPYEFDHLPYLDDVDETDLRKMEEARLAYVAAVNTAKEREDEESLVMAAQARAYLQSLAFTY | soluble
17 | MSLTPATETVSPISQWYDMMTRMFPDQRLTFLNYGYLAQDSDFDWINDADLEQKCSVNLIRTLLGDSDLRGKKVLEIGSGRGGNCSYLARYTGAASVTGLDFCPAHIELCNRVHALPGLSFVGGDAMALPFADNEFDVVINIESSHCYPDLNTFGAEVQRVLKQDGRFFYADTMKGDNTSALSEPDSIGVDFFSNVLAQHQAMIEHARFKVEEHRDISDGVIRAFESQDGHLKHLLRSLVEEKKQQREPLPPEVWHAFDTMFHFFDDSGIKAYKNGHLAYKFWRLQKAAEGHHHHHH | not soluble
18 | SIGLTVEDLLSLRQVVSGNPEALAPLLENISARYPQLREHIMANPEVFVSMLLEA | soluble
19 | MSLAYTKKKYTPKTKEQIKEETKEIMDKVLTDITKYYRSPEDMLELANFMAKFSNYSPKNMQLIRSQFENAYACANFKAFKDAGFHVNKGETAMKVFHPYVKEYVRDPRTKLAIPLGKLTEEQKKQVKNGELKVEKQTNYYLKATAFDISQTNAKPEDLPKIFPNRQFNFEINDENKELLKIGIQALAEKENIKIKTMGQGALVKELGNVHGAYVQVLDSSYSQIVMNPRNTETNELSVAIHELAHAKLHGNKIDPLEHTPTKEFEAELTSYIVCKHYGMDTSESAVPYIAQWTKNGQDIEEKDKSIMRVHETASSFINTIDKKISELQREGHHHHHH | soluble
20 | MAEMSEKTPELGDALRVGARVLVRRPSETAATGAAVEDCADLVPAQDRGHEWAPVPRWAVALDDGRLVFADTEDLTVNPSPGAPEGEIGKAVEPK | not soluble
21 | MRKLLAVFSKGRWKMEQKLQEQLDGLLEKYTELLLGETNDELKEEVKQWILYTHIAKSMPPLAKHWNATYPDAKQGIKEIIQHIKELNEAHRNKQLEHHHHHH | soluble
